One test deals with HLA-A*03:01 (Homo sapiens, UniProt P04439). Kind of test: In vitro binding to class I MHC (UV peptide exchange, HLA class I ELISA). To be noted: 100% = same binding as positive control peptide. As for the experimental part:
(§1) The 9 mer peptides identified by bioinformatics analysis were analyzed for their binding propensities to 6 common HLA class I alleles (HLA-A*01:01, A*02:01, A*03:01, A*24:02, B*07:02, B*08:01). The principle of the method is briefly described below and consists of two parts, one involving exchange of peptide with a positive control induced by Ultraviolet (UV) radiation, and the second is an enzyme immunoassay to detect stable HLA-peptide and empty HLA complexes. HLA-bound peptides are critical for the stability of the HLA complex. A conditional HLA class I complex was stabilized by an UV-labile peptide utilizing a different peptide (Pos) for each HLA (Pos: HLA-A*01:01: […](SEQ ID NO: 409), HLA-A*02:01: […] (SEQ ID NO: 410), HLA-A*03:01: […] (SEQ ID NO: 411), HLA-A*24:02: […] (SEQ ID NO: 412), HLA-B*07:02: […] (SEQ ID NO: 413), HLA-B*08:01: […] (SEQ ID NO: 414), which could be cleaved by UV irradiation when bound to the HLA molecule. Upon cleavage, the resulting peptide fragments dissociated from the HLA class I complex since their length was insufficient to bind stably to HLA. Under the conditions in which peptide cleavage was performed (neutral pH, on melting ice), the peptide-free HLA complex remained stable.
(§2) The exchange efficiency between the peptide of interest and Pos was analyzed using an HLA class I ELISA. The combined technologies allowed the identification of ligands for an HLA molecule of interest which are potentially immunogenic.
(§3) Exchange control peptide Pos was a high affinity binder to the relevant HLA class I allele while exchange control peptide Neg was a non-binder. The UV control represented UV-irradiation of conditional HLA class I complex in the absence of a rescue peptide.
(§4) The HLA class I ELISA is an enzyme immunoassay based on the detection of beta2-microglobulin (B2M) of (peptide-stabilized) HLA class I complexes. To this end streptavidin was bound onto polystyrene microtiter wells. After washing and blocking, HLA complex present in exchange reaction mixtures or ELISA controls was captured by the streptavidin on the microtiter plate via its biotinylated heavy chain. Non-bound material was removed by washing. Subsequently, horseradish peroxidase (HRP)-conjugated antibody to human B2M was added. The HRP-conjugated antibody binds only to an intact HLA complex present in the microtiter well because unsuccessful peptide exchange results in disintegration of the original UV-sensitive HLA complex upon UV illumination. In the latter case B2M was removed during the washing step. After removal of non-bound HRP conjugate by washing, a substrate solution was added to the wells. A colored product formed in proportion to the amount of intact HLA complex present in the samples. After the reaction was terminated by the addition of a stop solution, absorbance was measured in a microtiter plate reader. The absorbance was normalized to the absorbance of an exchange control peptide (represents 100%). Suboptimal HLA binding of peptides with a moderate to low affinity for HLA class I molecules can also be detected by this ELISA technique (Rodenko, B et al. (2006) Nature Protocols 1: 1120-32).
(§5) Peptides that had 10% or greater exchange efficiency in one of the 6 HLA alleles were considered for further immunogenicity testing and analysis.
(§6) Binding of select neoepitopes to HLA-A*01:01, HLA-A*02:01, HLA-A*03:01, HLA-A*24:02, HLA-B*07:02 and HLA-B*08:01 was evaluated using the assay described in Example 1. […] As a criterion for further evaluation, peptides with an exchange rate of at least 10% with the corresponding Pos peptide for at least one of the 6 HLA alleles that we considered for further evaluation. The exchange rates with the allele specific Pos peptides, of the 24 neoantigens so identified are summarized below in Table 17. Higher percentages correspond to stronger binding to the HLA allele.
For orientation: In an ELISA, binding on a coated surface is turned into a signal by an enzyme label.

The next test has as its target HLA-A*01:01 (Homo sapiens, UniProt P04439, A114D/A174V/A182V/D101N/D185E/E176A/E190D/L180R/Q94H/R68K/S129P/T187R/V100A/V91M/W191G). The test is described as above. Conditions: 100% = same binding as positive control peptide. As for the experimental part: as §1, §2, §3, §4, §5, §6
The target of another test is HLA-B*07:02 (Homo sapiens, UniProt P01889). The description is as above. To be noted: 100% = same binding as positive control peptide. As to the method: as §1, §2, §3, §4, §5, §6
Another test concerns the target HLA-A*02:01 (Homo sapiens, UniProt P04439, D140Y/D185E/D98H/E176V/E277Q/G131W/G231S/I119V/I121R/I166T/I218V/L300P/L318F/N151K/N90K/P208A/P217A/Q86G/Q94H/R138H/R169H/T345S). Described as above. To be noted: 100% = same binding as positive control peptide. As for the experimental part:
as §1, §2, §3, §4, §5, §6

A further test has as its target HLA-B*08:01 (Homo sapiens, UniProt P01889, A93T/A95T/D138N/E176V/E187T/K202T/Q94N/R180D/S35A/V36M/Y33D/Y91F). Described as above. Conditions: 100% = same binding as positive control peptide. As for the experimental part:
as §1, §2, §3, §4, §5, §6

Another test deals with HLA-A*24:02 (Homo sapiens, UniProt P04439, D101N/D140Y/D185E/E176V/E190D/F33S/G103R/G107R/I119L/I121M/I306V/K335N/L105A/L180Q/L300P/N151K/N90K/Q86E/Q94H/R106L/R138H/R89G/T104I/T345S/V100E/W191G/Y123F). The test is described as above. To be noted: 100% = same binding as positive control peptide. As for the experimental part: as §1, §2, §3, §4, §5, §6
Test [1] relates to CD8+ T cells in PBMCs from patients with metastatic castrate-resistant prostate cancer. Kind of test: Patient PBMC restimulation assay (TNFα+IFNγ+ CD8+ T cells). Conditions: 9mer peptide. It is filed as cell-based, human. As to the method: PBMCs from human patients with metastatic castrate-resistant prostate cancer were thawed using media (RPMI 1640 supplemented with Glutamax, 10% HI FBS, and IX Sodium Pyruvate). Cells were counted and plated in a 96 well round bottom microplate at a concentration of 250,000 viable cells per well. Lyophilized peptides were solubilized in 100% DMSO and diluted in media to 10 μg/mL. Neoantigen peptides were added in equal volume to PBMCs for a final concentration of 5 μg/mL. CEF Peptide Pool “Plus” (Cellular Technologies, Ltd.) was utilized as a positive control and DMSO at the same final concentration as the experimental peptides was utilized as a negative control. Human IL-15 (Peprotech) was added to all wells at final concentration of 10 ng/mL.
Plates were incubated at 37° C. (5% CO2) for a total of 13 days. Media was refreshed every 2 days with IL-15 (10 ng/mL final concentration) and IL-2 (R&D systems, 10 IU/mL final concentration). On day 12, PBMCs were re-stimulated with identical experimental peptides or controls, at same concentration as peptide stimulation on Day 1. After 1-hour incubation, protein Inhibitor Cocktail (eBioscience) was added to every well and plate was incubated overnight.
On day 13, cells were stained for intracellular flow cytometry analysis. The cells were washed with PBS and stained with Live/Dead Fixable Aqua Dead Cell stain (ThermoFisher). Following the live/dead stain, cells were blocked using Biotin-Free Fc Receptor Blocker (Accurate Chemical & Scientific Corp). Extracellular cellular flow panel (1 μL/antibody per well in 50 μL) consisted of CD3 PerCP-Cy5.5 (Biolegend), CD4 BV421 (Biolegend), and CD8 APC-Cy7 (Biolegend). After extracellular staining, cells were fixed using Foxp3/Transcription Factor Staining Buffer Set (eBioscience) and stained for intracellular proteins (1:50 dilution) using TNFα FITC (R&D Systems) and IFNγ BV785 (Biolegend). Cells were washed and resuspended in stain buffer and analyzed using a BD Celesta flow cytometer.
Flow cytometry cell staining analysis was completed using Flow Jo v10. Cells were gated on live, singlet, CD3+ cells. The CD8+ T cells were analyzed for TNFα/IFNγ expression and the frequency of double positive TNFα/IFNγ CD8+ T cells was recorded. Responses were assessed to be positive when the frequency of double positive TNFα/IFNγ CD8+ T cells due to stimulation with an experimental peptide was increased greater than or equal to 2-fold over the DMSO only negative control for that patient. Peptides were analyzed in 1 to 7 patient samples.
The 9 mer fragments shown in Table 13 were assessed for their ability to activate T cells using the Patient PBMC restimulation assay described in Example 1 using TNFα and IFNγ production by CD8^+ T cells as a readout. Self-antigens shown in Table 15 were also used in the assays. […] PBMCs from ten patients were evaluated.

For the substance “P98: peptide used for stimulation of PBMC samples (FIG. 5D); sequence in a table not shown (DDRNTFDIVWWCPMSRLRLALTVPPSTTTTCVTVPAWAA; listed as Homo sapiens) [Neoantigen P98]”, in the test with HLA-A*03:01, the “Exchange rate with allele specific Pos peptide, HLA-A*03:01” value is on record as 51.1%. Further, in the test with HLA-A*01:01, the “Exchange rate with allele specific Pos peptide, HLA-A*01:01” value was found to be 2.5%. Besides, in the test with HLA-B*07:02, the “Exchange rate with allele specific Pos peptide, HLA-B*07:02” value is listed as 6.7%. In the test with HLA-A*02:01, the “Exchange rate with allele specific Pos peptide, HLA-A*02:01” value was 7.9%. Besides, in the test with HLA-B*08:01, the “Exchange rate with allele specific Pos peptide, HLA-B*08:01” value is given as 2.4%. In the test with HLA-A*24:02, the “Exchange rate with allele specific Pos peptide, HLA-A*24:02” value is recorded as −0.1%. For the same substance, in test [1] (TNFα+IFNγ+CD8+ T cells, highest across PBMC donors), the “Maximum fold change over negative control” value came to 14.93. Moreover, the “Maximum frequency of TNFα+IFNγ+CD8+ T cells (Percent)” value in test [1] (greatest frequency among all tested PBMC donors) came to 1.000%.

The values above are taken from patent publication US12692513B2, “Prostate neoantigens and their uses” (Janssen Biotech, Inc., priority 2020, dated 2026).
